The DeepSol protein solubility set

assay: soluble on expression in E. coli; label from the status in PepcDB or PDB records

Row | Sequence | soluble on expression in E. coli
1 | MDKFKSMTELKELTKEGKDWEIECENRSSIVTILALHGGGIEPATTELAYTIAHCGDYNYFSFKGMRSKGNNELHVTSTHYDDQIALDLVRGSQRTVAIHGCEGNESVAYIGGSDDRLIELITESLEDIGISVREAPHHISGTQENNIVNMTQTQGGVQLELTAQLRKELFKNRKSSLEHHHHHH | not soluble
2 | MYLHMAIAAPRILCPDMDSDTTKKWIFREPSRTDGDDVYALITECPPLDINSSYCNFLQATHFSKTCVLAEKDGDLAGFISGYQEPDEPNTLFIWQVAVSPRYRGKGLAFSMLTTLLERKNLLHIEFIETTITKANNASWSLFKKIDAQYGNQGQVTTFLDKESHFKGKHDTEYLYRIPLKSSQK | not soluble
3 | MGSDKIHHHHHHMAEHIITLVLSGERLDVTTSTPFVVALRDLLYEGDWELLKEDMKKKENIMKEVQTCEKLEKVVHLDETVYEPLIFPEFQEWLREENITPKDFKNVSLKGLYDLALEYADRNLYDIAHDIIKFMLDIDENYAPAYELKGSLLVEQGKIEEGIKFLDKAVEIDPWLVQAYASLGEAYYNLGDYEKAIHYWERELEYNPNDKITYFMITEAYYEMNRKDLAVKTLERLLEIDPDNIPALYQLSQLYRELGNEEKAREMEEKIMNCKPKYPTELEPWARVMLKHGRYKEVAEELEKIVESSPLNTLARLLLVVPYVKLGQIDKAREILDDIGQSNFWYYYGKKEILDELLTEEEKRACGIS | not soluble
4 | KILEREFSMNEQLFKDLFDRAVDGIVLFDKDGGFIDANLSFCKSFEINHNELSHLSLYEFIDSGSRKDFDNIWKALNRKGKAKGELPVKLRSGVQKLFEFTITSNIISGFYMSIMRDIT | not soluble
5 | MQLDRVDRKILNELYNDSRLSMRELAKRVNLSAPSTSERVRKLESEGVIQKYTIDIDYKKAGLVLDCILEITLKNGDTTRMQQFIQSYPSASFCYRVTGSLCYIVKISVPSLVELEEFINDVSSYATTVSHIVLSEVSLTPDIEHIFPED | not soluble
6 | DDYDQSLCSTGFYVVRSNQINPETLLTLFKSLPIQQLLKKACSGTILTGIGKQEFEKIPIPLIRPEVQEEIAQHVQRSFALRKEASELLEKAKLSVEYAIETGGGNSLIYSGLLNTLAKYERLAMWLLLKELGIVDESPNRQRVVTTEKRLSESFFTSGRLDAEYYQPKYDYLDAQFSSIPTKRLGDIVNIHKSIEPGSDAYQENGIPFVRVADLSKFGIETSSICLDSSTYSTAPRPRKNTILLSKDGSVGIAYKMEEDADIITSGAILHLSMKGKELLPDYLTLVLNSPIVRMQAERDAGGSIIQHWKPSEISQVIIPMLPVYIQQKLSDLVSKSFAFRRESKALLERAKAMVEQAIEFSA | not soluble
7 | MKPIDRFSYLKNNRVSQDTSSLVQCYLPIIGQEALSLYLYTISFWDNGRKEYLFSSILNHLNFGMDRLIKSLKILSAFNLLTLYQKGDVYQLALHAPLSSQDFLGHPVYRRLLEKKIGDVAVEDLKVESADGEEIPVSLNQVFPELAELGSQEDLGLKKKVANDFDLEHFRQLMARDGLRFADEQSDVLNLFAIAEEKKWTWFETYQLAKSTAVSQVISTKRMREKIAQKPVSSDFSLKEATIIKEAKSKTALQFLAEIKQTRKGTITQTERELLQQMAGLGLLDEVINIILLLTFNKVDSANINEKYAMKVANDYAYQKIHSAEEAVLRIRDRGQKAKTQKQNQTAPEKTNVPKWSNPEYKNETSEETRLELERKKQELLARLEKG | soluble
8 | MSSVVNAAYAEYNGKEKGDQEDPRVLIPQLCRLFYELGWVTGTGGGISLRHGEHIYIAPSGVQKERIQPEDLFVCDIDEKDISCPPPQKKLKKSQCTPPFMNAYTMRGAQAVIHTHSKSAVMATLLFPGKEFRITHQEMIKGIRKGNSGTNFRYDDTLVVPIIENTPEEKDLKERMARAMDMYPDSCAVLVRRHGVYVWGETWEKAKTMCECYDYLFDIAVQMKQSGLDPSAFPTEEKGIV | not soluble
